Measured values as given in the nanobody polyreactivity screen of Harvey et al. (2022).

assay: yeast display, Sf9 membrane polyspecificity reagent, FACS + sequencing; frameworks hold sequencing errors
Summary of the method: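 In a synthetic yeast display library (Saccharomyces cerevisiae BJ5465), nanobody expression was induced with galactose for 36–48 hours. FACS gates were set low and high (top ~1%) using anti-HA fluorescence for expression and streptavidin fluorescence for binding of the Sf9 membrane reagent. Each polyreactivity label is drawn from the gate of origin.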

Sequence | polyreactivity (PSR sort gate)
QVQLVESGGGLVQAGGSLRLSCAASGRIFFTYAMGWYRQAPGKERELVAAIDRSGTSTYYADSVKGRFTISRDNAKNTVYLQMNRLKPEDTAVYNCAARPNPNYDEMDYWGQGTQVNVSS | low polyreactivity
QVQLVESGGGLVQAGGSLRLSCAASGRIFFTYTMGWYRQAPGKERELVAAITGGGARTYYADSVKGRFTISRDNSKNTVYLQMNSLKPEDTAVYYCAKGWQRIGFYYWGQGTQVTVSS | high polyreactivity
QVQLVESGGGLVQAGGSLRLSCAASGRIFFTYTMGWYRQAPVNERELVAAITGGGARTYYADSVKVRFTISRDYAKNTVYLQMNSLKPEDSAVYYCAKGWQRIGFYYWGQGTQVTVSS | high polyreactivity
QVQLVESGGGLVQAGGSLRLSCAASGRIFFYNTMGWYRQAPGKERELVATISWSGASTYYADSVKGRFTISRDNAKNTVYLQMNSLKPEDTAVDYCAAVTRYTGFDYWGQGTQVTVSS | high polyreactivity
QVQLVESGGGLVQAGGSLRLSCAASGRIFFYYAMGWYRQAPGKEREFVAAISTSSGSTYYADSVKGRFTISRDNAKNTVYLQMNSLKPEDTAVYYCAADEVYSRGIWPVEDDYWGQGTQVTVSS | low polyreactivity
QVQLVESGGGLVQAGGSLRLSCAASGRIFFYYAMGWYRQAPGKERELVATITASGDSTYYADSVKGRFTISRDNAKDTVYLQMNSLKPEDTAVYYCAADDGDYYEVDYWGQGTQVTVSS | low polyreactivity
QVQLVESGGGLVQAGGSLRLSCAASGRIFFYYAMGWYRQAPGKEREMVAAISWSGSSTYYADSVKGRFTISRDNAKNTVYLQMNSLKPEDTAVYYCAADYYIDYFYYDYWGQGTQVTVSS | high polyreactivity
QVQLVESGGGLVQAGGSLRLSCAASGRIFGAYAMGWSRQAPGKERELVAAITSRGGNTYYADSVKGRFTISRDNAKNTVYLQMNSVKPEDTAVYYCAARHDKRRQYYVGQSAFDYWGQGTQVTVSS | low polyreactivity
QVQLVESGGGLVQAGGSLRLSCAASGRIFGAYAMGWYIQAPGKERELVAAIDIRGGNTYYADSVKGRFTISRDNAKNTVYFQMNSQKPVDTAVYYCAADTWYDAYNYWGQGTQVTVSS | low polyreactivity
QVQLVESGGGLVQAGGSLRLSCAASGRIFGAYAMGWYRQAPGKERELVAAITSAGSTHYADSVKGRFTISRDNAKNTVYLQMNCLKPQDTAVYYCAADRYPWPLQYVEYDSDYWGQGTQVTVSS | low polyreactivity
QVQLVESGGGLVQAGGSLRLSCAASGRIFGAYAMGWYRQAPGKERELVAAITSRGGNTYYADSVKGRFTISRDTAKNTVYLQMNSLKPEDTAVYSCAARHDKRRQYYVGQSAFDYWGQGTQVTVSS | low polyreactivity
QVQLVESGGGLVQAGGSLRLSCAASGRIFGAYAMGWYRQAPGKERELVATITSDGSTDYADSVKGRFTISRDNAKNTVYLQMNSLKPEDTAVYYCAVAYLWRPYDFREFDYWGQGTQVTVSS | low polyreactivity
QVQLVESGGGLVQAGGSLRLSCAASGRIFGAYTMGWYRQEPGKERELVAAISDGGDTYYADSVKGRFTISRDNAKNTVYFQMNRVKPEDTAVYYCAADAPYYAYYWFPSSFGIYGYWGQGTQVTVSS | low polyreactivity
QVQLVESGGGLVQAGGSLRLSCAASGRIFGDNAMGWYRQAPGKERELVAGIRWRADRTYYADSVKWRFTISRDNAKNTVYLQMNSLKPEDTAVYYCNVGSFTGHSYGFGYWGQGTQVTVSS | low polyreactivity
QVQLVESGGGLVQAGGSLRLSCAASGRIFGDNTMGWYRQAPGKERELVAAISFTGGSTYYADSVKGRFTISRDNAKNTVYLQMNSLKPEDTAVYYCNADWVSTWGYDYWGQGTQVTVSS | low polyreactivity
QVQLVESGGGLVQAGGSLRLSCAASGRIFGDYAKGWYRQAPGKERELVAAIRFDTGSTYYADSVKGRFTISRDTAKNTVYLQMNSLKPEDTAVYYCAAQHRGVQVTFGEYDYWGQGTQVTVSS | low polyreactivity
QVQLVESGGGLVQAGGSLRLSCAASGRIFGDYAMGGSRQAPGKERELVAVISVGGRTSYADSVKGRFTISRDNAKNTVYLQMNSLKPEDTAVYYCATRLSTRDGGYWGQGTQVTVSS | low polyreactivity
QVQLVESGGGLVQAGGSLRLSCAASGRIFGDYAMGWYRQAPGKEMELVAAITSAGSTHYADSVKGRFTISRDNAKNTVYLQMNILKPDDTAVYYCAADGIARAYVLFDAYDFLYDYWGQGTHVTVSS | low polyreactivity
QVQLVESGGGLVQAGGSLRLSCAASGRIFGDYGMGWYRQAPGKERELVAAITDRGGTTYYADSVKGRFTISRDNAKNTVYLQMNSLKPEDTAVYYCNARQSDIFDYDYWGQGTQVTVSS | low polyreactivity
QVQLVESGGGLVQAGGSLRLSCAASGRIFGEKAMGWYRQAPGKERELVADITWSGTSTYYADSVKGRFTISRDNAKNTVYLQMNSLKPEDTAVYYCAASATLFSSRGKRYYWGQGTQVTVSS | low polyreactivity
QVQLVESGGGLVQAGGSLRLSCAASGRIFGENAMGWYRQAPGKEWEFVAVISISDASTYYADSVKGRFTISRDNAKNSVDFQMNSLKPEDTAVYYCAADLTDFLYVASDYWGQGTQVTVSS | low polyreactivity
QVQLVESGGGLVQAGGSLRLSCAASGRIFGFNARGWYRQAPGKERELVAGITDSSGRTNYADSVKGRFTISRDNAKNTVYLQMNSLKPEDTAVYYCARRRFGQYTERYYWGQGTQVTVSS | low polyreactivity

Sequence | polyreactivity (PSR sort gate)
QVQLVESGGGLVQAGGSLRLSCAASGRIFGFYVMGWYRQAPGKERELVAAISSRGGSTYYADSVKGRFTISRDNAKNTVYLQMNSLKPEDTAVYYCAASVYREYYDNDDYWGQGTQVTVSS | high polyreactivity
QVQLVESGGGLVQAGGSLRLSCAASGRIFGGNAMGWYRQAPGKERELVAAISKRGGSTYYADSVKGRFTISRDNAKNTVYLQMNSLKPEDTAVYYCAAGFTAWTGVWYGYWGQGTQVTVSS | high polyreactivity
QVQLVESGGGLVQAGGSLRLSCAASGRIFGGYAMGWYRQAPGKERELVAAISSSGGRTYYADSVKGRFTISRDNAKNTVYLQMKSLKPEDTAVYYCNAGAGQRVSGHSFEYWGQGTQVTVSS | high polyreactivity
QVQLVESGGGLVQAGGSLRLSCAASGRIFGGYAMGWYRQAPGKERELVAAITSSGSTNYADSVKGRFTISRDNAKNTVYLQMNSLKPEDTAVYYCATDFKTVYYWWGMDYWGQGTQVTVSS | low polyreactivity
QVQLVESGGGLVQAGGSLRLSCAASGRIFGGYEMGWYRQAPGKERELVAAITSDSSTTYADSVKGRFTISRDNAKNTVYLQMNSLKPEDTAVYYCAVQVNGPVFYRPYRDYDYWGQGTQVTVSS | low polyreactivity
QVQLVESGGGLVQAGGSLRLSCAASGRIFGGYGMGWYRPAPGKQRELVAAISSGGNTKYADSVKGRFTISRDNAKNTVYLQMNSLKPEDTAVYHCAAKFAQPDYRYDYWGQGTQVTVSS | high polyreactivity
QVQLVESGGGLVQAGGSLRLSCAASGRIFGGYTMGWYRQAPGKEREFVAAITSSGGSTYYADSVKGRFTISRDNAKNTVYLQMYSLKPEETAVYYCAVDDYYYDYDYWGQGTQVTVSS | low polyreactivity
QVQLVESGGGLVQAGGSLRLSCAASGRIFGGYVMGWYRQAPGKERELVAAINGGGGSTYYADSVKGRFTISRDNAKNTVYLQMNSLKPEDTAVYYCMLVKRSQRKSTIDFDYWGQGTQVTVSS | high polyreactivity
QVQLVESGGGLVQAGGSLRLSCAASGRIFGHNAMGWYRQAPGKERELVAAISYRGCSTYYADSVKGRCTISRDNAKNTVYLQMNSLKPVDTAVYYCAARWNRGRYDYWGQGTEVTVSS | high polyreactivity
QVQLVESGGGLVQAGGSLRLSCAASGRIFGHYAMGWYRHAPGKERELVAAINWRGGSTYYADSVKGRFTISRDNAKNTVYVQMKSLKPEETGVYYCAADWTKARDSIYDYWGQGSQVTVSS | low polyreactivity
QVQLVESGGGLVQAGGSLRLSCAASGRIFGHYAMGWYRQAPGKERELVAAISQSGTNTYYADSVKGRFTISRDNAKNTVYLQMNSLKPEDTAVYYCAAKPPRRYQLMDYWGQGTQVTVSS | high polyreactivity
QVQLVESGGGLVQAGGSLRLSCAASGRIFGINAMGWYRQAPGKERELVAAIDSAGRTYYADSVKGRFTISRDNAKNTVYLQMNSLKPEDTAVYSCNKDHSLYEHNYWGQGTQVTVSS | low polyreactivity
QVQLVESGGGLVQAGGSLRLSCAASGRIFGIYAMRWYRQAPGKERELVAAISYSGGSTYYADSVKGRFTISRDNAKNTVYLQMNSLNPEDTAVYYCNADYYASYYPYYSIRLDYLGQGTQVTVSS | low polyreactivity
QVQLVESGGGLVQAGGSLRLSCAASGRIFGKNDMGWYRQAPGKEREFVATIDWSGGSTYYADSVKGRFTISRDNAKNTVYLQMNSLKPEDTAVYYCAASGWNRYLFDYWGQGTQVTVSS | low polyreactivity
QVQLVESGGGLVQAGGSLRLSCAASGRIFGKYVMGWYRQAPGKERELVAAISRSGGSTSYADSVKGRFTISRDNAKNTVYLQMNSLKPEDTAVYYCAASPAGYLAPRGYYWGQGTQVTVSS | high polyreactivity
QVQLVESGGGLVQAGGSLRLSCAASGRIFGKYVMVWYRQEPGKERELVAGISWSAGSTYYADSVKGRFTISRDTAKNTVYLQMNSLKPEDSAVYSCAAGLEGGYDYWGQGTEVTVSS | low polyreactivity
QVQLVESGGGLVQAGGSLRLSCAASGRIFGLYAMGWYRQAPGKERELVAAINRTGNTNYADSVKGRFTISRDNAKNTVYLQMNSLKPEDTAVYYCAARFPYWRRYDYWGQGTQVTVSS | high polyreactivity
QVQLVESGGGLVQAGGSLRLSCAASGRIFGLYAMGWYRQAPGKERELVAAISRGGGSTYYADSVKGRFTISRDNAKNTVYLQMNSLKPEDTAVYYCATGLGYFSRLDYWGQGTLVTVSS | low polyreactivity
QVQLVESGGGLVQAGGSLRLSCAASGRIFGLYAMGWYRQAPGKERELVAAISRGGGSTYYADSVKGRFTISRDNAKNTVYLQMNSLKPEDTAVYYCATGLGYFSRLDYWGQGTQVTVSS | low polyreactivity
QVQLVESGGGLVQAGGSLRLSCAASGRIFGLYAMGWYRQAPGKERELVAAISWSGGRTYYADSVKGRFTISRDNAKNTVYLQMNSLKPEDTAVYYCAARSYYRSQYGFDFWGQGTQVTVSS | high polyreactivity
QVQLVESGGGLVQAGGSLRLSCAASGRIFGLYAMGWYRQAPGKERELVAAITSSTGSTYYADSVKGRFTISRDNAKNTVYLQMNSLKPEDTAVYYCAADLYSPSIYGYIYYTWLDYWGQGTQVTVSS | high polyreactivity
